Each block holds one molecule with its values, some of them ahead of it. Where no end group is shown, it is not given here. Flc = fluorescein label
Columns and labels:
[1] = biological target: T1, Ssa1 (wild type, His-tagged) (S. cerevisiae, UniProt P10591 1-642)
T1 construct: Ssa1, cytosolic Hsp70 of Saccharomyces cerevisiae; Ssa1(1-532) is said to lack 110 residues, so the whole protein has 642 residues; Assayed with 1 mM ADP (anisotropy) or as a preformed 32P-ATP complex (ATPase); also called WT Ssa1; His-Ssa

[2] = biological target: T1, Ssa1 (wild type, His-tagged); assay: fluorescence polarisation; equilibrium titration: 10 nM F-P5 with Ssa1 in 2-fold steps from 2.4 nM to 5 uM, 1 mM ADP, buffer A (25 mM Hepes-KOH pH 7.5, 100 mM KCl, 11 mM MgOAc), 4% glycerol, 0.005% NP-40, 24 hr at room temperature (23°C); one site saturation fit; conditions: both partners purified
Ssa1 R444E (His-tagged) [3] = biological target: T2, Ssa1 R444E (His-tagged) (S. cerevisiae, UniProt P10591 1-642, R444E); assay: as above; conditions: both partners purified
T2 construct: Ssa1, cytosolic Hsp70 of Saccharomyces cerevisiae, with R444E (in SBDbeta); made by QuikChange in the purification plasmid; Same construct as m1 with the point mutation; also called R444E variant

Ssa1 K446E (His-tagged) [4] = biological target: T3, Ssa1 K446E (His-tagged) (S. cerevisiae, UniProt P10591 1-642, K446E); assay: as above; conditions: both partners purified
T3 construct: Ssa1, cytosolic Hsp70 of Saccharomyces cerevisiae, with K446E (in SBDbeta); made by QuikChange in the purification plasmid; Same construct as m1 with the point mutation; also called K446E variant

Ssa1 R444E (His-tagged) [5] = biological target: T2, Ssa1 R444E (His-tagged); assay: cell-based or functional assay
Ssa1 K446E (His-tagged) [6] = biological target: T3, Ssa1 K446E (His-tagged); assay: cell-based or functional assay
[7] = biological target: T1, Ssa1 (wild type, His-tagged); assay: fluorescence polarisation; dissociation kinetics: 5 uM Ssa1, 10 nM F-P5, 1 mM ADP brought to equilibrium, then unlabeled P5 added to 40 uM; read every 10 s; percent of the signal at t = 0; conditions: both partners purified

T1 sequence (P10591 whole entry): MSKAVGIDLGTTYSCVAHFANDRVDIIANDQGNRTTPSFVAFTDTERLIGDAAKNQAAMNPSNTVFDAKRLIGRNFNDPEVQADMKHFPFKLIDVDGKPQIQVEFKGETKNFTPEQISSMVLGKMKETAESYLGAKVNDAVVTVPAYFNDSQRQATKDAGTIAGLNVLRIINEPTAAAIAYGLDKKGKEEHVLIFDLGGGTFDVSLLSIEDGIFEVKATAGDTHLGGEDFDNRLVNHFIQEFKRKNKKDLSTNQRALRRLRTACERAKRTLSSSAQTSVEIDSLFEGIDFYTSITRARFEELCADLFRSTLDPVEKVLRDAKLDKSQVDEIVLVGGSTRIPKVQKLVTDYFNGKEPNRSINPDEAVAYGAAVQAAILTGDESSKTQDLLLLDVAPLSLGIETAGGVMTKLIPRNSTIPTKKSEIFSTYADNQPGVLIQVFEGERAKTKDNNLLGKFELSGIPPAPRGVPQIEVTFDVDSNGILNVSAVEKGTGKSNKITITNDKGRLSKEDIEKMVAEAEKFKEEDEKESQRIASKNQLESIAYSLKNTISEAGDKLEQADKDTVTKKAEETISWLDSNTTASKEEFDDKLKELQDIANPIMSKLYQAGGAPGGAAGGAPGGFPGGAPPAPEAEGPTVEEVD
T3 sequence (P10591 whole entry K446E): as the sequence (P10591 whole entry) above, with K446E counted along it
T2 sequence (P10591 whole entry R444E): as the sequence (P10591 whole entry) above, with R444E counted along it

stimulation of single-turnover ATPase activity of the 32P-ATP/Ssa1 complex, compared with WT Ydj1 (% less active than WT) [1]: 20
Molecule: Ydj1 G70N (from UniProt P25491 1-409) (natural protein)

binding result [2]: binds | binding result (Ssa1 R444E (His-tagged) [3]): binds | binding result (Ssa1 K446E (His-tagged) [4]): binds
B1: fluorescein-labeled P5 peptide (peptide)
peptide: Flc-CALLLSAPRR
notes: peptide substrate P5; also called F-P5; source: bought: Sigma Chemical, St. Louis, MO

fold stimulation of single-turnover ATPase activity of the 32P-ATP/Ssa1 complex by peptide P5, relative to basal activity (four P5 concentrations; value at 133 uM) (Ssa1 R444E (His-tagged) [5]): 1.7 fold | fold stimulation of single-turnover ATPase activity of the 32P-ATP/Ssa1 complex by peptide P5, relative to basal activity (four P5 concentrations; value at 133 uM) (Ssa1 K446E (His-tagged) [6]): 2.8 fold | binding result [7]: binds
B2: peptide P5 (unlabeled) (peptide)
peptide: CALLLSAPRR
notes: peptide substrate P5; also called unlabeled P5; peptide substrate; source: bought: Sigma Chemical, St. Louis, MO
